B1: TRAF3IP2 (parent)
chain: YGHDYPRAAYQQVIQPALPGQPLP
B2: KRT33B (parent)
chain: YQSYFKTIEELQQKILCSKSENAR

Variants of: B1
Experiment: protein stability index of a GFP-peptide fusion (GPS, HEK-293T) (PSI 1-6); higher = more stable
Details: c terminus: a fixed tail appended
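Also: lentivirally expressed fusions sorted by FACS into six bins by GFP to DsRed ratio, PSI derived from sequencing read proportions per bin multiplied by bin number.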

Variant	protein stability index
YGHDYPRAAYQQVIQPALPWQPLP [G20W]	1.49
YGHDYPRAAYQQVIQPALPSQPLP [G20S]	1.6
YGHDYPRAAYQQVIQPALPIQPLP [G20I]	1.58
YGHDYPRAAYQQVIQPALPQQPLP [G20Q]	2.04
YGHDYPRAAYQQVIQPALPMQPLP [G20M]	2.27
YGHDYPRAAYQQVIQPALPNQPLP [G20N]	2.68
YGHDYPRAAYQQVIQPALPLQPLP [G20L]	1.38
YGHDYPRAAYQQVIQPALPVQPLP [G20V]	1.69
YGHDYPRAAYQQVIQPALPYQPLP [G20Y]	2.66
YGHDYPRAAYQQVIQPALPRQPLP [G20R]	1.52
YGHDYPRAAYQQVIQPALPKQPLP [G20K]	2.23
YGHDYPRAAYQQVIQPALPGQDLP [P22D]	1.34
YGHDYPRAAYQQVIQPALPGQHLP [P22H]	1.71
YGHDYPRAAYQQVIQPALPGQMLP [P22M]	1.82
YGHDYPRAAYQQVIQPALPGQFLP [P22F]	2.56
YGHDYPRAAYQQVIQPALPGQKLP [P22K]	2.17
YGHDYPRAAYQQVIQPALPGQTLP [P22T]	2.33
YGHDYPRAAYQQVIQPALPGQGLP [P22G]	3.86
YGHDYPRAAYQQVIQPALPGQWLP [P22W]	1.26
YGHDYPRAAYQQVIQPALPGQLLP [P22L]	1.39
YGHDYPRAAYQQVIQPALPGQILP [P22I]	1.82
YGHDYPRAAYQQVIQPALPGQYLP [P22Y]	1.75

Variant	protein stability index
YGHDYPRAAYQQVIQPALPGQSLP [P22S]	1.8
YGHDYPRAAYQQVIQPALPGQALP [P22A]	1.93
YGHDYPRAAYQQVIQPALPGQRLP [P22R]	1.79
YGHDYPRAAYQQVIQPALPGQNLP [P22N]	2.11
YGHDYPRAAYQQVIQPALPGQVLP [P22V]	1.8
YGHDYPRAAYQQVIQPALPGQELP [P22E]	1.71
YGHDYPRAAYQQVIQPALPGQQLP [P22Q]	2.24
YGHDYPRAAYQQVIQPALPGQCLP [P22C]	1.62
YGHDYPRAAYQQVIQPALPGIPLP [Q21I]	2.79
YGHDYPRAAYQQVIQPALPGNPLP [Q21N]	2.08
YGHDYPRAAYQQVIQPALPGEPLP [Q21E]	2.2
YGHDYPRAAYQQVIQPALPGGPLP [Q21G]	1.58
YGHDYPRAAYQQVIQPALPGPPLP [Q21P]	2.95
YGHDYPRAAYQQVIQPALPGTPLP [Q21T]	2.1
YGHDYPRAAYQQVIQPALPGSPLP [Q21S]	1.99
YGHDYPRAAYQQVIQPALPGWPLP [Q21W]	1.84
YGHDYPRAAYQQVIQPALPGVPLP [Q21V]	2.44
YGHDYPRAAYQQVIQPALPGRPLP [Q21R]	2.24
YGHDYPRAAYQQVIQPALPGMPLP [Q21M]	2.67
YGHDYPRAAYQQVIQPALPGYPLP [Q21Y]	1.88
YGHDYPRAAYQQVIQPALPGDPLP [Q21D]	2.58
YGHDYPRAAYQQVIQPALPGFPLP [Q21F]	1.65

Variant	protein stability index
YGHDYPRAAYQQVIQPALPGLPLP [Q21L]	2.02
YGHDYPRAAYQQVIQPALPGAPLP [Q21A]	2.12
YGHDYPRAAYQQVIQPALPGKPLP [Q21K]	2.21
YGHDYPRAAYQQVIQPALPGCPLP [Q21C]	2.74
YGHDYPRAAYQQVIQPALPGHPLP [Q21H]	1.37
YGHDYPRAAYQQVIQPALPGQPLL [P24L]	2.84
YGHDYPRAAYQQVIQPALPGQPLV [P24V]	2.09
YGHDYPRAAYQQVIQPALPGQPLR [P24R]	1.89
YGHDYPRAAYQQVIQPALPGQPLS [P24S]	1.43
YGHDYPRAAYQQVIQPALPGQPLT [P24T]	2.59
YGHDYPRAAYQQVIQPALPGQPLM [P24M]	2.07
YGHDYPRAAYQQVIQPALPGQPLF [P24F]	1.9
YGHDYPRAAYQQVIQPALPGQPLI [P24I]	1.78
YGHDYPRAAYQQVIQPALPGQPLD [P24D]	2.45
YGHDYPRAAYQQVIQPALPGQPLA [P24A]	2.67
YGHDYPRAAYQQVIQPALPGQPLE [P24E]	1.42
YGHDYPRAAYQQVIQPALPGQPLW [P24W]	2.3
YGHDYPRAAYQQVIQPALPGQPLY [P24Y]	1.6
YGHDYPRAAYQQVIQPALPGQPLC [P24C]	2
YGHDYPRAAYQQVIQPALPGQPLQ [P24Q]	1.76
YGHDYPRAAYQQVIQPALPGQPLH [P24H]	1.83
YGHDYPRAAYQQVIQPALPGQPLK [P24K]	2.47

Variant	protein stability index
YGHDYPRAAYQQVIQPALPGQPLG [P24G]	2.12
YGHDYPRAAYQQVIQPALPGQPLN [P24N]	2.14
YGHDYPRAAYQQVIQPALPGQPCP [L23C]	2.21
YGHDYPRAAYQQVIQPALPGQPAP [L23A]	2.62
YGHDYPRAAYQQVIQPALPGQPIP [L23I]	2.24
YGHDYPRAAYQQVIQPALPGQPEP [L23E]	1.8
YGHDYPRAAYQQVIQPALPGQPWP [L23W]	1.72
YGHDYPRAAYQQVIQPALPGQPTP [L23T]	1.99
YGHDYPRAAYQQVIQPALPGQPSP [L23S]	2.02
YGHDYPRAAYQQVIQPALPGQPVP [L23V]	2.5
YGHDYPRAAYQQVIQPALPGQPYP [L23Y]	1.7
YGHDYPRAAYQQVIQPALPGQPFP [L23F]	2.15
YGHDYPRAAYQQVIQPALPGQPQP [L23Q]	2.24
YGHDYPRAAYQQVIQPALPGQPNP [L23N]	2.09
YGHDYPRAAYQQVIQPALPGQPGP [L23G]	1.77
YGHDYPRAAYQQVIQPALPGQPPP [L23P]	1.54
YGHDYPRAAYQQVIQPALPGQPKP [L23K]	2.2
YGHDYPRAAYQQVIQPALPGQPMP [L23M]	2.59
YGHDYPRAAYQQVIQPALPGQPHP [L23H]	1.59
YGHDYPRAAYQQVIQPALPGQPDP [L23D]	2.18
YGHDYPRAAYQQVIQPALPGQPRP [L23R]	2.28

Variants of: B2
Experiment: as above
Details: c terminus: a fixed tail appended

Variant	protein stability index
YQSYFKTIEELQSKILCSKSENAR [Q13S]	1.86
YQSYFKTIEELQHKILCSKSENAR [Q13H]	2.09
YQSYFKTIEELQCKILCSKSENAR [Q13C]	1.3
YQSYFKTIEELQQKILCSKRENAR [S20R]	1.89
YQSYFKTIEELQQKILCSKAENAR [S20A]	2.02
YQSYFKTIEELQQKILCSKQENAR [S20Q]	1.81
YQSYFKTIEELTQKILCSKSENAR [Q12T]	1.96
YQSYFKTIEELVQKILCSKSENAR [Q12V]	1.98
YQSYFKTIEELYQKILCSKSENAR [Q12Y]	1.97
YQSYFKTIEELIQKILCSKSENAR [Q12I]	1.94
YQSYFKTIEELSQKILCSKSENAR [Q12S]	1.96
YQSYFKTIEELRQKILCSKSENAR [Q12R]	2.11
YESYFKTIEELQQKILCSKSENAR [Q2E]	3.37
YYSYFKTIEELQQKILCSKSENAR [Q2Y]	2.16
YRSYFKTIEELQQKILCSKSENAR [Q2R]	2.63
YSSYFKTIEELQQKILCSKSENAR [Q2S]	2.22
YCSYFKTIEELQQKILCSKSENAR [Q2C]	1.52
YTSYFKTIEELQQKILCSKSENAR [Q2T]	1.76
YQSYFKTIEELQQKILCSKSENAI [R24I]	1.79
YQSYFKTIEELQQKILCSKSCNAR [E21C]	1.79
YQSYFKTIEELQQKILCSKSWNAR [E21W]	1.28
YQSYFKTIEELQQKILCSKSANAR [E21A]	1.86
YQSYFKTIEELQQKILCSKSSNAR [E21S]	1.54
YQSYFKTIEELQQKILCSKSNNAR [E21N]	1.79
YQSYFKTIEELQQKILCSKSHNAR [E21H]	1.79
YQSYFKTIEELQQKILCSKSGNAR [E21G]	1.72

Variant	protein stability index
YQSYFKTIEELQQKILCSKSFNAR [E21F]	2.06
YQSYFKTIEELQQKILCSKSMNAR [E21M]	2.13
YQSYFKTIEELQQKILCSISENAR [K19I]	1.71
YQSYFKTIEELQQKILCSMSENAR [K19M]	1.69
YQSYFKTIEELQQKILCSCSENAR [K19C]	1.84
YQSYFKTIEELQQKILCSFSENAR [K19F]	1.7
YQSYFKTIEELQQKILCSHSENAR [K19H]	1.76
YQSYFKTIEELQQKILCSNSENAR [K19N]	1.86
YQSYFKTIEEPQQKILCSKSENAR [L11P]	2.06
YQSYFKTIEEHQQKILCSKSENAR [L11H]	2.1
YQSYFKTIEESQQKILCSKSENAR [L11S]	1.84
YQSYFKTIEELQQKIPCSKSENAR [L16P]	2.12
YQSYFKTIEELQQKIFCSKSENAR [L16F]	1.93
YQSYFKTIEELQQKIGCSKSENAR [L16G]	1.92
YQSYFKTIEELQQKIMCSKSENAR [L16M]	1.85
YQSYFKTIEELQQKIRCSKSENAR [L16R]	2.49
YQSYFKTIEWLQQKILCSKSENAR [E10W]	1.71
YQSYFKTIEKLQQKILCSKSENAR [E10K]	2.44
YQSYFKTIECLQQKILCSKSENAR [E10C]	1.72
FQSYFKTIEELQQKILCSKSENAR [Y1F]	1.93
KQSYFKTIEELQQKILCSKSENAR [Y1K]	2.88
HQSYFKTIEELQQKILCSKSENAR [Y1H]	3.04
DQSYFKTIEELQQKILCSKSENAR [Y1D]	4.28
AQSYFKTIEELQQKILCSKSENAR [Y1A]	3.35
YQSYFKTIEELQQKILCSKSENYR [A23Y]	1.64
YQSYFKTIEELQQKILCSKSENGR [A23G]	2.03

Variant	protein stability index
YQSYFKTIEELQQKILCSKSENRR [A23R]	2.13
YQSYFKTIEELQQKILCSKSEHAR [N22H]	2.18
YQSYFKTIEELQQKILCSKSEAAR [N22A]	2.31
YQSYFKTIEELQQKILCSKSEPAR [N22P]	1.46
YQSYFKTIEELQQKILDSKSENAR [C17D]	1.65
YQSFFKTIEELQQKILCSKSENAR [Y4F]	1.85
YQSHFKTIEELQQKILCSKSENAR [Y4H]	1.81
YQSMFKTIEELQQKILCSKSENAR [Y4M]	2.11
YQSKFKTIEELQQKILCSKSENAR [Y4K]	1.5
YQSVFKTIEELQQKILCSKSENAR [Y4V]	2.19
YQSCFKTIEELQQKILCSKSENAR [Y4C]	2.01
YQSSFKTIEELQQKILCSKSENAR [Y4S]	1.54
YQSYFKLIEELQQKILCSKSENAR [T7L]	2
YQSYFKPIEELQQKILCSKSENAR [T7P]	1.85
YQSYFKWIEELQQKILCSKSENAR [T7W]	1.8
YQSYFKTIEELQQKILCAKSENAR [S18A]	2.21
YQSYFKTIEELQQKILCQKSENAR [S18Q]	2.26
YQSYFKTIEELQQKILCKKSENAR [S18K]	1.86
YQSYFKTIEELQQKILCTKSENAR [S18T]	2
YQSYFTTIEELQQKILCSKSENAR [K6T]	1.79
YQSYFLTIEELQQKILCSKSENAR [K6L]	1.77
YQSYFVTIEELQQKILCSKSENAR [K6V]	2.41
YQSYFETIEELQQKILCSKSENAR [K6E]	1.93
YQSYYKTIEELQQKILCSKSENAR [F5Y]	2.32
YQSYDKTIEELQQKILCSKSENAR [F5D]	3.8
YQSYIKTIEELQQKILCSKSENAR [F5I]	2.12

Variant	protein stability index
YQSYFKTIEELQQQILCSKSENAR [K14Q]	2.78
YQSYFKTIEELQQHILCSKSENAR [K14H]	2.28
YQSYFKTIEELQQDILCSKSENAR [K14D]	1.68
YQSYFKTIEELQQAILCSKSENAR [K14A]	1.53
YQSYFKTITELQQKILCSKSENAR [E9T]	2.12
YQSYFKTINELQQKILCSKSENAR [E9N]	2.69
YQSYFKTIQELQQKILCSKSENAR [E9Q]	1.98
YQSYFKTIVELQQKILCSKSENAR [E9V]	1.98
YQSYFKTILELQQKILCSKSENAR [E9L]	2.17
YQSYFKTICELQQKILCSKSENAR [E9C]	1.79
YQMYFKTIEELQQKILCSKSENAR [S3M]	1.78
YQYYFKTIEELQQKILCSKSENAR [S3Y]	2.54
YQKYFKTIEELQQKILCSKSENAR [S3K]	1.98
YQLYFKTIEELQQKILCSKSENAR [S3L]	1.96
YQIYFKTIEELQQKILCSKSENAR [S3I]	1.67
YQFYFKTIEELQQKILCSKSENAR [S3F]	1.46
YQSYFKTIEELQQKGLCSKSENAR [I15G]	2.25
YQSYFKTIEELQQKELCSKSENAR [I15E]	1.81
YQSYFKTIEELQQKWLCSKSENAR [I15W]	1.71
YQSYFKTIEELQQKQLCSKSENAR [I15Q]	2.09
YQSYFKTIEELQQKFLCSKSENAR [I15F]	2
YQSYFKTIEELQQKDLCSKSENAR [I15D]	2.05
YQSYFKTKEELQQKILCSKSENAR [I8K]	2.42
